Measurements: US20240261333A1, “NOVEL TARGETS FOR ENHANCING ANTI-TUMOR IMMUNITY” (THE BROAD INSTITUTE, INC., priority 2021, published 2024)

T1: B3GNT2 (Homo sapiens, UniProt Q9NY97)
T1 construct: The respective ORFs of candidate genes [CD274 (NM_014143), MCL1 (NM_021960), JUNB (NM_002229), and B3GNT2 (NM_006577)] were synthesized; expressed in transfected cells; host or cells: A375 melanoma cells (lentiviral ORF overexpression)
T1 sequence (Q9NY97 1-397): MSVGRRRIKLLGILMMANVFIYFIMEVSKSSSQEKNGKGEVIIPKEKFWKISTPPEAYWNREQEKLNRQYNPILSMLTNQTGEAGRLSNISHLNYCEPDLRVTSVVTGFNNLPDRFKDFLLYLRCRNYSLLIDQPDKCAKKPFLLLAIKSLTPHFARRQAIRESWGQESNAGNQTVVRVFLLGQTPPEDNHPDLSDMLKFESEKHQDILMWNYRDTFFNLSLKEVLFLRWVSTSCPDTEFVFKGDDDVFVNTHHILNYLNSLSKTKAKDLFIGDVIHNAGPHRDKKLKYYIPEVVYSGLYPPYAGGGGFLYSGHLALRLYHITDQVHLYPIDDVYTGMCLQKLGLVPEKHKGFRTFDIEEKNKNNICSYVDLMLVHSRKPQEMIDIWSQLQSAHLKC

B1: TM9SF3 (protein)
chain: DEHEHTYQDKEEVVLWMNTVGPYHNRQETYKYFSLPFCVGSKKSISHYHETLGEALQGVELEFSGLDIKFKDDVMPATYCEIDLDKEKRDAFVYAIKNHYWYQMYIDDLPIWGIVGEADENGEDYYLWTYKKLEIGFNGNRIVDVNLTSEGKVKLVPNTKIQMSYSVKWKKSDVKFEDRFDKYLDPSFFQHRIHWFSIFNSFMMVIFLVGLVSMILMRTLRKDYARYSKEEEMDDMDRDLGDEYGWKQVHGDVFRPSSHPLIFSSLIGSGCQIFAVSLIVIIVAMIEDLYTERGSMLSTAIFVYAATSPVNGYFGGSLYARQGGRRWIKQMFIGAFLIPAMVCGTAFFINFIAIYYHASRAIPFGTMVAVCCICFFVILPLNLVGTILGRNLSGQPNFPCRVNAVPRPIPEKKWFMEPAVIVCLGGILPFGSIFIEMYFIFTSFWAYKIYYVYGFMMLVLVILCIVTVCVTIVCTYFLLNAEDYRWQWTSFLSAASTAIYVYMYSFYYYFFKTKMYGLFQTSFYFGYMAVFSTALGIMCGAIGYMGTSAFVRKIYTNVKID
B2: DPM1 (protein, UniProt O60762 2-260, looked up)
Dolichol-phosphate …: ASLEVSRSPRRSRRELEVRSPRQNKYSVLLPTYNERENLPLIVWLLVKSFSESGINYEIIIIDDGSPDGTRDVAEQLEKIYGSDRILLRPREKKLGLGTAYIHGMKHATGNYIIIMDADLSHHPKFIPEFIRKQKEGNFDIVSGTRYKGNGGVYGWDLKRKIISRGANFLTQILLRPGASDLTGSFRLYRKEVLEKLIEKCVSKGYVFQMEMIVRARQLNYTIGEVPISFVDRVYGESKLGGNEIVSFLKGLLTLFATT
B3: MYO1D (protein)
chain: AEQESLEFGKADFVLMDTVSMPEFMANLRLRFEKGRIYTFIGEVVVSVNPYKLLNIYGRDTIEQYKGRELYERPPHLFAIADAAYKAMKRRSKDTCIVISGESGAGKTEASKYIMQYIAAITNPSQRAEVERVKNMLLKSNCVLEAFGNAKTNRNDNSSRFGKYMDINFDFKGDPIGGHINNYLLEKSRVIVQQPGERSFHSFYQLLQGGSEQMLRSLHLQKSLSSYNYIHVGAQLKSSINDAAEFRVVADAMKVIGFKPEEIQTVYKILAAILHLGNLKFVVDGDTPLIENGKVVSIIAELLSTKTDMVEKALLYRTVATGRDIIDKQHTEQEASYGRDAFAKAIYERLFCWIVTRINDIIEVKNYDTTIHGKNTVIGVLDIYGFEIFDNNSFEQFCINYCNEKLQQLFIQLVLKQEQEEYQREGIPWKHIDYFNNQIIVDLVEQQHKGIIAILDDACMNVGKVTDEMFLEALNSKLGKHAHFSSRKLCASDKILEFDRDFRIRHYAGDVVYSVIGFIDKNKDTLFQDFKRLMYNSSNPVLKNMWPEGKLSITEVTKRPLTAATLFKNSMIALVDNLASKEPYYVRCIKPNDKKSPQIFDDERCRHQVEYLGLLENVRVRRAGFAFRQTYEKFLHRYKMISEFTWPNHDLPSDKEAVKKLIERCGFQDDVAYGKTKIFIRTPRTLFTLEELRAQMLIRIVLFLQKVWRGTLARMRYKRTKAALTIIRYYRRYKVKSYIHEVARRFHGVKTMRDYGKHVKWPSPPKVLRRFEEALQTIFNRWRASQLIKSIPASDLPQVRAKVAAVEMLKGQRADLGLQRAWEGNYLASKPDTPQTSGTFVPVANELKRKDKYMNVLFSCHVRKVNRFSKVEDRAIFVTDRHLYKMDPTKQYKVMKTIPLYNLTGLSVSNGKDQLVVFHTKDNKDLIVCLFSKQPTHESRIGELVGVLVNHFKSEKRHLQVNVTNPVQCSLHGKKCTVSVETRLNQPQPDFTKNRSGFILSVPGN
B4: SMN1 (protein)
chain: AMSSGGSGGGVPEQEDSVLFRRGTGQSDDSDIWDDTALIKAYDKAVASFKHALKNGDICETSGKPKTTPKRKPAKKNKSQKKNTAASLQQWKVGDKCSAIWSEDGCIYPATIASIDFKRETCVVVYTGYGNREEQNLSDLLSPICEVANNIEQNAQENENESQVSTDESENSRSPGNKSDNIKPKSAPWNSFLPPPPPMPGPRLGPGKPGLKFNGPPPPPPPPPPHLLSCWLPPFPSGPPIIPPPPPICPDSLDDADALGSMLISWYMSGYHTGYYMEMLA
B5: PGK1 (protein)
chain: SLSNKLTLDKLDVKGKRVVMRVDFNVPMKNNQITNNQRIKAAVPSIKFCLDNGAKSVVLMSHLGRPDGVPMPDKYSLEPVAVELKSLLGKDVLFLKDCVGPEVEKACANPAAGSVILLENLRFHVEEEGKGKDASGNKVKAEPAKIEAFRASLSKLGDVYVNDAFGTAHRAHSSMVGVNLPQKAGGFLMKKELNYFAKALESPERPFLAILGGAKVADKIQLINNMLDKVNEMIIGGGMAFTFLKVLNNMEIGTSLFDEEGAKIVKDLMSKAEKNGVKITLPVDFVTADKFDENAKTGQATVASGIPAGWMGLDCGPESSKKYAEAVTRAKQIVWNGPVGVFEWEAFARGTKALMDEVVKATSRGCITIIGGGDTATCCAKWNTEDKVSHVSTGGGASLELLEGKVLPGVDALSNI
B6: SFXN3 (protein)
chain: MGELPLDINIQEPRWDQSTFLGRARHFFTVTDPRNLLLSGAQLEASRNIVQNYRAGVVTPGITEDQLWRAKYVYDSAFHPDTGEKVVLIGRMSAQVPMNMTITGCMLTFYRKTPTVVFWQWVNQSFNAIVNYSNRSGDTPITVRQLGTAYVSATTGAVATALGLKSLTKHLPPLVGRFVPFAAVAAANCINIPLMRQRELQVGIPVADEAGQRLGYSVTAAKQGIFQVVISRICMAIPAMAIPPLIMDTLEKKDFLKRRPWLGAPLQVGLVGFCLVFATPLCCALFPQKSSIHISNLEPELRAQIHEQNPSVEVVYYNKGL
B7: HLA-A (protein)
MHC heavy: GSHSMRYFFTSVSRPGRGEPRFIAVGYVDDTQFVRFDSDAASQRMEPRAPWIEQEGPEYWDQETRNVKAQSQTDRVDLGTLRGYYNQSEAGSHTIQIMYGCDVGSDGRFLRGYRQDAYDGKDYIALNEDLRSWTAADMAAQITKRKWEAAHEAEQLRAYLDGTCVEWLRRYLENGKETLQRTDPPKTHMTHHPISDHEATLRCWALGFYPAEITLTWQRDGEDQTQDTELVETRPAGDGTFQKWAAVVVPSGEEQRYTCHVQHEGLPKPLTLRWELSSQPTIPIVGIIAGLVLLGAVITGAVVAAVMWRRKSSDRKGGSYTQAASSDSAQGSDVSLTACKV
B8: SLC25A10 (protein)
chain: MAAEARVSRWYFGGLASCGAACCTHPLDLLKVHLQTQQEVKLRMTGMALRVVRTDGILALYSGLSASLCRQMTYSLTRFAIYETVRDRVAKGSQGPLPFHEKVLLGSVSGLAGGFVGTPADLVNVRMQNDVKLPQGQRRNYAHALDGLYRVAREEGLRRLFSGATMASSRGALVTVGQLSCYDQAKQLVLSTGYLSDNIFTHFVASFIAAAGDEPPPQGGCATFLCQPLDVLKTRLMNSKGEYQGVFHCAVETAKLGPLAFYKGLVPAGIRLIPHTVLTFVFLEQLRKNFGIKVPS

Target: T1, B3GNT2
Test: Co-IP of FLAG-tagged B3GNT2 followed by mass spectrometry
Assay type: cell-based
Design: C-term IgG / C-term flag: unit not given here
Details: Co-IP with FLAG antibody, C-terminally FLAG-tagged B3GNT2; mass spectrometry count, unit not given
Method in brief: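 FLAG-tagged B3GNT2 immunoprecipitated from cell lysate (HEPES, 1% Triton X-100, 150 mM NaCl) with anti-FLAG versus […], overnight at 4° C, then captured on Protein A/G magnetic beads for 4 h. Two biological replicates per condition. Peptides fractionated and analyzed by nano-LC on an Orbitrap Elite in data-dependent mode.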

Row | C-term flag | Molecule
1 | 11 | B1
2 | 8 | B2
3 | 2 | B3
4 | 14 | B4
5 | 2 | B5
6 | 2 | B6
7 | 6 | B8

Row | Molecule | C-term flag
8 | B7 | 4

Same assay, conditions: Co-IP with FLAG antibody, N-terminally FLAG-tagged B3GNT2; mass spectrometry count, unit not given

Row | N-term FLAG | Molecule
9 | 0 | B1
10 | 4 | B2
11 | 0 | B3
12 | 10 | B4
13 | 0 | B5
14 | 0 | B6
15 | 5 | B8

Row | Molecule | N-term FLAG
16 | B7 | 6

Same assay, conditions: Co-IP with IgG control antibody, C-terminally FLAG-tagged B3GNT2; mass spectrometry count, unit not given

Row | C-term IgG | Molecule
17 | 0 | B1
18 | 0 | B2
19 | 0 | B3
20 | 2 | B4
21 | 0 | B5
22 | 0 | B6
23 | 0 | B8

Row | Molecule | C-term IgG
24 | B7 | 0

Same assay, conditions: Co-IP with IgG control antibody, N-terminally FLAG-tagged B3GNT2; mass spectrometry count, unit not given

Row | N-term IgG | Molecule
25 | 0 | B1
26 | 0 | B2
27 | 0 | B3
28 | 0 | B4
29 | 0 | B5
30 | 0 | B6
31 | 0 | B8

Row | Molecule | N-term IgG
32 | B7 | 0
